# From patent publication US12630600B2 (MEDIMMUNE LIMITED, priority 2022, dated 2026)
# Starred links: 1 amine or outer side, 2 acyl side, 3 side chain; linkers in the order of their positions; H or OH if unused. Non-standard residues stand in square brackets, D forms with d. Groups on a side chain read outwards from the residue. No end group written: not given here. *: point of attachment. C20 diacid = O=C(O)CCCCCCCCCCCCCCCCCCC(=O)*; C18 diacid = O=C(O)CCCCCCCCCCCCCCCCC(=O)*; γGlu = O=C(O)[C@H](CCC(=O)[*:2])N[*:1]; αMeF = C[C@](N)(Cc1ccccc1)C(=O)O; AEEA = NCCOCCOCC(=O)O; Aib = CC(C)(N)C(=O)O
# B1: Peptide 499 (peptide)
# peptide: H[Aib]QGTFTSDVSK[αMeF]LDTK([AEEA-AEEA-γGlu-C18 diacid])RAQDFVQWLLR[Aib]A-OH
# modifications: N-terminus assumed
# SMILES: CC(C)C[C@H](NC(=O)[C@H](Cc1c[nH]c2ccccc12)NC(=O)[C@H](CCC(N)=O)NC(=O)[C@@H](NC(=O)[C@H](Cc1ccccc1)NC(=O)[C@H](CC(=O)O)NC(=O)[C@H](CCC(N)=O)NC(=O)[C@H](C)NC(=O)[C@H](CCCNC(=N)N)NC(=O)[C@H](CCCCNC(=O)COCCOCCNC(=O)COCCOCCNC(=O)CC[C@H](NC(=O)CCCCCCCCCCCCCCCCC(=O)O)C(=O)O)NC(=O)[C@@H](NC(=O)[C@H](CC(=O)O)NC(=O)[C@H](CC(C)C)NC(=O)[C@](C)(Cc1ccccc1)NC(=O)[C@H](CCCCN)NC(=O)[C@H](CO)NC(=O)[C@@H](NC(=O)[C@H](CC(=O)O)NC(=O)[C@H](CO)NC(=O)[C@@H](NC(=O)[C@H](Cc1ccccc1)NC(=O)[C@@H](NC(=O)CNC(=O)[C@H](CCC(N)=O)NC(=O)C(C)(C)NC(=O)[C@@H](N)Cc1c[nH]cn1)[C@@H](C)O)[C@@H](C)O)C(C)C)[C@@H](C)O)C(C)C)C(=O)N[C@@H](CC(C)C)C(=O)N[C@@H](CCCNC(=N)N)C(=O)NC(C)(C)C(=O)N[C@@H](C)C(=O)O
# B2: Peptide 497 (peptide)
# peptide: H[Aib]QGTFTSDVSK[αMeF]LDTK([AEEA-AEEA-γGlu-C18 diacid])RAQDFVRWLLR[Aib]A-OH
# modifications: N-terminus assumed
# SMILES: CC(C)C[C@H](NC(=O)[C@H](Cc1c[nH]c2ccccc12)NC(=O)[C@H](CCCNC(=N)N)NC(=O)[C@@H](NC(=O)[C@H](Cc1ccccc1)NC(=O)[C@H](CC(=O)O)NC(=O)[C@H](CCC(N)=O)NC(=O)[C@H](C)NC(=O)[C@H](CCCNC(=N)N)NC(=O)[C@H](CCCCNC(=O)COCCOCCNC(=O)COCCOCCNC(=O)CC[C@H](NC(=O)CCCCCCCCCCCCCCCCC(=O)O)C(=O)O)NC(=O)[C@@H](NC(=O)[C@H](CC(=O)O)NC(=O)[C@H](CC(C)C)NC(=O)[C@](C)(Cc1ccccc1)NC(=O)[C@H](CCCCN)NC(=O)[C@H](CO)NC(=O)[C@@H](NC(=O)[C@H](CC(=O)O)NC(=O)[C@H](CO)NC(=O)[C@@H](NC(=O)[C@H](Cc1ccccc1)NC(=O)[C@@H](NC(=O)CNC(=O)[C@H](CCC(N)=O)NC(=O)C(C)(C)NC(=O)[C@@H](N)Cc1c[nH]cn1)[C@@H](C)O)[C@@H](C)O)C(C)C)[C@@H](C)O)C(C)C)C(=O)N[C@@H](CC(C)C)C(=O)N[C@@H](CCCNC(=N)N)C(=O)NC(C)(C)C(=O)N[C@@H](C)C(=O)O
# B3: Peptide 493 (peptide)
# peptide: H[Aib]QGTFTSDVSK[αMeF]LDTK([AEEA-AEEA-γGlu-C18 diacid])RAQDFVRWLLR[Aib]K-OH
# modifications: N-terminus assumed
# SMILES: CC(C)C[C@H](NC(=O)[C@H](Cc1c[nH]c2ccccc12)NC(=O)[C@H](CCCNC(=N)N)NC(=O)[C@@H](NC(=O)[C@H](Cc1ccccc1)NC(=O)[C@H](CC(=O)O)NC(=O)[C@H](CCC(N)=O)NC(=O)[C@H](C)NC(=O)[C@H](CCCNC(=N)N)NC(=O)[C@H](CCCCNC(=O)COCCOCCNC(=O)COCCOCCNC(=O)CC[C@H](NC(=O)CCCCCCCCCCCCCCCCC(=O)O)C(=O)O)NC(=O)[C@@H](NC(=O)[C@H](CC(=O)O)NC(=O)[C@H](CC(C)C)NC(=O)[C@](C)(Cc1ccccc1)NC(=O)[C@H](CCCCN)NC(=O)[C@H](CO)NC(=O)[C@@H](NC(=O)[C@H](CC(=O)O)NC(=O)[C@H](CO)NC(=O)[C@@H](NC(=O)[C@H](Cc1ccccc1)NC(=O)[C@@H](NC(=O)CNC(=O)[C@H](CCC(N)=O)NC(=O)C(C)(C)NC(=O)[C@@H](N)Cc1c[nH]cn1)[C@@H](C)O)[C@@H](C)O)C(C)C)[C@@H](C)O)C(C)C)C(=O)N[C@@H](CC(C)C)C(=O)N[C@@H](CCCNC(=N)N)C(=O)NC(C)(C)C(=O)N[C@@H](CCCCN)C(=O)O
# B4: Peptide 496 (peptide)
# peptide: H[Aib]QGTFTSDVSK[αMeF]LDTK([AEEA-AEEA-γGlu-C20 diacid])RAQDFVRWLLR[Aib]K-NH2
# modifications: N-terminus assumed
# SMILES: CC(C)C[C@H](NC(=O)[C@H](Cc1c[nH]c2ccccc12)NC(=O)[C@H](CCCNC(=N)N)NC(=O)[C@@H](NC(=O)[C@H](Cc1ccccc1)NC(=O)[C@H](CC(=O)O)NC(=O)[C@H](CCC(N)=O)NC(=O)[C@H](C)NC(=O)[C@H](CCCNC(=N)N)NC(=O)[C@H](CCCCNC(=O)COCCOCCNC(=O)COCCOCCNC(=O)CC[C@H](NC(=O)CCCCCCCCCCCCCCCCCCC(=O)O)C(=O)O)NC(=O)[C@@H](NC(=O)[C@H](CC(=O)O)NC(=O)[C@H](CC(C)C)NC(=O)[C@](C)(Cc1ccccc1)NC(=O)[C@H](CCCCN)NC(=O)[C@H](CO)NC(=O)[C@@H](NC(=O)[C@H](CC(=O)O)NC(=O)[C@H](CO)NC(=O)[C@@H](NC(=O)[C@H](Cc1ccccc1)NC(=O)[C@@H](NC(=O)CNC(=O)[C@H](CCC(N)=O)NC(=O)C(C)(C)NC(=O)[C@@H](N)Cc1c[nH]cn1)[C@@H](C)O)[C@@H](C)O)C(C)C)[C@@H](C)O)C(C)C)C(=O)N[C@@H](CC(C)C)C(=O)N[C@@H](CCCNC(=N)N)C(=O)NC(C)(C)C(=O)N[C@@H](CCCCN)C(N)=O
# B5: Peptide 500 (peptide)
# peptide: H[Aib]QGTFTSDVSK[αMeF]LDTK([AEEA-AEEA-γGlu-C20 diacid])RAQDFVQWLLR[Aib]A-OH
# modifications: N-terminus assumed
# SMILES: CC(C)C[C@H](NC(=O)[C@H](Cc1c[nH]c2ccccc12)NC(=O)[C@H](CCC(N)=O)NC(=O)[C@@H](NC(=O)[C@H](Cc1ccccc1)NC(=O)[C@H](CC(=O)O)NC(=O)[C@H](CCC(N)=O)NC(=O)[C@H](C)NC(=O)[C@H](CCCNC(=N)N)NC(=O)[C@H](CCCCNC(=O)COCCOCCNC(=O)COCCOCCNC(=O)CC[C@H](NC(=O)CCCCCCCCCCCCCCCCCCC(=O)O)C(=O)O)NC(=O)[C@@H](NC(=O)[C@H](CC(=O)O)NC(=O)[C@H](CC(C)C)NC(=O)[C@](C)(Cc1ccccc1)NC(=O)[C@H](CCCCN)NC(=O)[C@H](CO)NC(=O)[C@@H](NC(=O)[C@H](CC(=O)O)NC(=O)[C@H](CO)NC(=O)[C@@H](NC(=O)[C@H](Cc1ccccc1)NC(=O)[C@@H](NC(=O)CNC(=O)[C@H](CCC(N)=O)NC(=O)C(C)(C)NC(=O)[C@@H](N)Cc1c[nH]cn1)[C@@H](C)O)[C@@H](C)O)C(C)C)[C@@H](C)O)C(C)C)C(=O)N[C@@H](CC(C)C)C(=O)N[C@@H](CCCNC(=N)N)C(=O)NC(C)(C)C(=O)N[C@@H](C)C(=O)O
# B6: Peptide 498 (peptide)
# peptide: H[Aib]QGTFTSDVSK[αMeF]LDTK([AEEA-AEEA-γGlu-C20 diacid])RAQDFVRWLLR[Aib]A-OH
# modifications: N-terminus assumed
# SMILES: CC(C)C[C@H](NC(=O)[C@H](Cc1c[nH]c2ccccc12)NC(=O)[C@H](CCCNC(=N)N)NC(=O)[C@@H](NC(=O)[C@H](Cc1ccccc1)NC(=O)[C@H](CC(=O)O)NC(=O)[C@H](CCC(N)=O)NC(=O)[C@H](C)NC(=O)[C@H](CCCNC(=N)N)NC(=O)[C@H](CCCCNC(=O)COCCOCCNC(=O)COCCOCCNC(=O)CC[C@H](NC(=O)CCCCCCCCCCCCCCCCCCC(=O)O)C(=O)O)NC(=O)[C@@H](NC(=O)[C@H](CC(=O)O)NC(=O)[C@H](CC(C)C)NC(=O)[C@](C)(Cc1ccccc1)NC(=O)[C@H](CCCCN)NC(=O)[C@H](CO)NC(=O)[C@@H](NC(=O)[C@H](CC(=O)O)NC(=O)[C@H](CO)NC(=O)[C@@H](NC(=O)[C@H](Cc1ccccc1)NC(=O)[C@@H](NC(=O)CNC(=O)[C@H](CCC(N)=O)NC(=O)C(C)(C)NC(=O)[C@@H](N)Cc1c[nH]cn1)[C@@H](C)O)[C@@H](C)O)C(C)C)[C@@H](C)O)C(C)C)C(=O)N[C@@H](CC(C)C)C(=O)N[C@@H](CCCNC(=N)N)C(=O)NC(C)(C)C(=O)N[C@@H](C)C(=O)O
# B7: Peptide 495 (peptide)
# peptide: H[Aib]QGTFTSDVSK[αMeF]LDTK([AEEA-AEEA-γGlu-C18 diacid])RAQDFVRWLLR[Aib]K-NH2
# modifications: N-terminus assumed
# SMILES: CC(C)C[C@H](NC(=O)[C@H](Cc1c[nH]c2ccccc12)NC(=O)[C@H](CCCNC(=N)N)NC(=O)[C@@H](NC(=O)[C@H](Cc1ccccc1)NC(=O)[C@H](CC(=O)O)NC(=O)[C@H](CCC(N)=O)NC(=O)[C@H](C)NC(=O)[C@H](CCCNC(=N)N)NC(=O)[C@H](CCCCNC(=O)COCCOCCNC(=O)COCCOCCNC(=O)CC[C@H](NC(=O)CCCCCCCCCCCCCCCCC(=O)O)C(=O)O)NC(=O)[C@@H](NC(=O)[C@H](CC(=O)O)NC(=O)[C@H](CC(C)C)NC(=O)[C@](C)(Cc1ccccc1)NC(=O)[C@H](CCCCN)NC(=O)[C@H](CO)NC(=O)[C@@H](NC(=O)[C@H](CC(=O)O)NC(=O)[C@H](CO)NC(=O)[C@@H](NC(=O)[C@H](Cc1ccccc1)NC(=O)[C@@H](NC(=O)CNC(=O)[C@H](CCC(N)=O)NC(=O)C(C)(C)NC(=O)[C@@H](N)Cc1c[nH]cn1)[C@@H](C)O)[C@@H](C)O)C(C)C)[C@@H](C)O)C(C)C)C(=O)N[C@@H](CC(C)C)C(=O)N[C@@H](CCCNC(=N)N)C(=O)NC(C)(C)C(=O)N[C@@H](CCCCN)C(N)=O
# Target: human GLP-1 receptor (human, UniProt P43220)
# Experiment: cell-based or functional assay
row,cAMP production EC50 [nM],Binder
1,0.0406,B1
2,0.0374,B2
3,0.0234,B3
4,0.0649,B4
5,0.102,B5
6,0.0987,H[Aib]QGTFTSDVSK[αMeF]LDTK([AEEA-AEEA-γGlu-C20 diacid])RAQDFVRWLLR[Aib]K-OH [Peptide 494]
7,0.156,B6
8,0.0232,B7

# Target: human glucagon receptor (human, UniProt P47871)
# Experiment: cell-based or functional assay
row,cAMP production EC50 [nM],Binder
1,0.0788,B1
2,0.118,B2
3,0.166,B3
4,0.482,B4
5,0.101,B5
6,0.212,H[Aib]QGTFTSDVSK[αMeF]LDTK([AEEA-AEEA-γGlu-C20 diacid])RAQDFVRWLLR[Aib]K-OH [Peptide 494]
7,0.17,B6
8,0.38,B7
